In the assay the target is FcgRIIIa F (human, UniProt P08637). As to the kind of experiment: SPR. In general terms: Surface plasmon resonance follows binding to a sensor surface in real time, without labels.

Positions count from the first letter of the chain named.

Chain of FcgRIIIa F (P08637 17-208): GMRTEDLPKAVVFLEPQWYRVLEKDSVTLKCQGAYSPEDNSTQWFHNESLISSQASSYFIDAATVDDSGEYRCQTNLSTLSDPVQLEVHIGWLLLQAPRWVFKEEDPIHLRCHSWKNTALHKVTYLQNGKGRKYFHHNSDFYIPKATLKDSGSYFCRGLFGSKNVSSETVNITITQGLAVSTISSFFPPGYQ

B1: GpH7-TA54/GpH7-B78/GpL16-k0 (antibody)
chain 1: QVQLVQSGAEVKKPGASVTVSCKASGYTFTDYEMHWIRQPPGEGLEWIGAIDPKTGDTAYSESFQDRVTLTADKSTSTAYMELSSLTSEDTAVYYCTRFYSYTYWGQGTLVTVSSASTKGPSVFPLAPSSKSTSGGTAALGCLVKDYFPEPVTVSWNSGALTSGVHTFPAVLQSSGLYSLSSVVTVPSSSLGTQTYICNVNHKPSNTKVDKKVEPKSCDKTHTCPPCPAPEYLWGPDVFLFPPKPKDTLMISRTPEVTCVVVDVSHEDPEVKFNWYVDGVEVHNAKTKPREEQWNATYRVVSVLTVLHQDWLNGKEYKCKVSNKALPAPIEKTISKAKGQPREPQVYTLPPSRKELTKNQVSLTCLVKGFYPSDIAVEWESNGQPENNYKTTPPVLDSDGSFFLYSKLTVDKSRWQQGNVFSCSVMHEALHNRYTQKSLSLSP
chain 2: B1 chain 1 with Y232L, W234G, W294Y, A296S, A328L, I330E, K354D, R433H, K437E
chain 3: DIVMTQSPLSLPVTPGEPASISCQASESLVHSNRNTYLHWYLQKPGQSPQLLIYKVSNRFSGVPDRFSGSGSGTDFTLKISRVEAEDVGVYYCSQNTHVPPTFGQGTKVEIERTVAAPSVFIFPPSDEQLKSGTASVVCLLNNFYPREAKVQWKVDNALQSGNSQESVTEQDSKDSTYSLSSTLTLSKADYEKHKVYACEVTHQGLSSPVTKSFNRGEC
Broadly, the Kd is the concentration at which binding is half-saturated. Higher therefore signals weaker binding. B1 yielded a Kd of 1 nM.

B2: GpH7-TA22/GpH7-TA58/GpL16-k0 (antibody)
chain 1: B1 chain 1 with W294Y
chain 2: B1 chain 1 with Y232L, W234G, A296S, A328L, I330E, K354D, R433H, K437E
chain 3: B1 chain 3
B2 showed a Kd of 1.3 nM.

These data come from patent US10766960 (dated 2020).
